Assay results: US20220404334A1, “BIOCHIP HAVING MICROCHANNEL PROVIDED WITH CAPTURING AGENT FOR PERFORMING CYTOLOGICAL ANALYSIS” (CASE WESTERN RESERVE UNIVERSITY, priority 2019, published 2022)

Experiments:
Recombinant human ICAM-1 = Recombinant human ICAM-1 (Homo sapiens, UniProt P05362); experiment: Microfluidic flow adhesion of HbSS RBCs to immobilized ICAM-1, inhibition experiments; assay type: cell-based
Experimental: ICAM-1 functionalized microchannels of the microfluidic device were connected to blood-containing syringes through 40-cm inlet tubing. A total of […] of whole blood sample was perfused into the microchannels at an approximate shear stress of 1 dyne/cm^2, corresponding to the typical shear stress observed in postcapillary venules, via a constant displacement syringe pump (New Era NE-300; New Era Pump Systems, Farmingdale, N.Y.). To remove the nonadherent cells, another syringe filled with wash buffer (1% bovine serum albumin and 0.09% sodium azide in 13 phosphate buffered saline [PBS]) was connected to the microchannels, and the buffer solution was injected at […], corresponding to a wall shear stress of 1 dyne/cm^2, until all nonadherent cells had been cleared. Phase-contrast images of the microchannel surface were obtained using an inverted microscope at 203. Quantification of ICAM-1-adherent RBCs was performed manually using Adobe Photo-shop CS5 (Adobe, San Jose, Calif.) within a rectangular field of view (fov) with a surface area of 32 mm^2.
For the inhibition studies, whole HbSS blood samples were mixed with a monoclonal mouse antibody against human α4β1 or LFA-1 at a final antibody concentration of […] and incubated at 37° C. for 1 hour prior to the adhesion experiments. As a control, samples were treated with the same concentration of isotype-control mouse immunoglobulin G1 for the same duration. Anti-human LFA-1 antibody and the isotype-control mouse immunoglobulin G were from BioLegend (San Diego, Calif.). Anti-human α4β1 antibody was purchased from Abcam (Cambridge, Mass.). To block the β2-associated adhesion pathways, a recombinant human β2 protein solution (Novus Biologicals, Centennial, Colo.) was perfused into ICAM-1-functionalized microchannels and incubated for 1 hour at 37° C. Before starting the adhesion experiments, the microchannels were rinsed 3 times with PBS. Similarly, to test the inhibitory effect of fibrinogen (Enzo Life Sciences, Farmingdale, N.Y.) or low molecular weight heparin (LMWH; AMSBIO, Cambridge, Mass.), ICAM-1-functionalized microchannels were injected with fibrinogen (range, 1-20 mg/mL) or LMWH (range, 0.1-5 mg/mL). After an hour at 37° C., the microchannels were rinsed with PBS 3 times, and adhesion was assessed as above.
Minitab 19 (Minitab, State College, Pa.) was used to analyze the results. A normality test was performed to determine whether the variables were normally distributed. Because of the largely non-normally distributed variables, Mann-Whitney U tests were used to compare 2 groups, and Kruskal-Wallis tests with Dunn's correction were used to compare multiple groups, unless stated otherwise. K-means clustering analysis was performed to identify distinct subject subpopulations based on hemolysis biomarkers. Through-out this article, the error bars represent±standard error of the mean (SEM). P<0.05 was considered statistically significant.

[1] = test system: heme-activated endothelial cells (HUVECs and HPMECs); experiment: Endothelium-on-a-chip: sickle RBC adhesion to heme-activated endothelial cells under hypoxia; assay type: cell-based, human; conditions: 5 μM, N=13 subjects
Experimental: The assembled microchannels are rinsed serially with PBS, 100% ethanol, and GMBS following a 20-minute incubation. Thereafter, another washing step is performed using 100% ethanol and PBS before loading the microchannels with a fibronectin solution at a concentration of 0.2 mg/mL. Fibronectin-loaded microchannels are incubated at 37° C. for 1 hour for complete protein immobilization on the GMBS-functionalized surface. To prepare the endothelialized microchannels, human endothelial cells are seeded into fibronectin-coated microchannels at a density of 4×10^6 cells/mL and incubated for 2 hours at 37° C. and 5% CO2 to allow cell attachment and spreading, while replacing the culture medium in the microchannels every hour.
The activating agents (e.g., heme or TNF-α) are then injected into the microchannels in a serum-free medium and incubated for a pre-determined period for activation to take place. Before using the activated endothelial cells, the microfluidic channels are rinsed for at least 2 times with serum-free medium.
When using blood samples collected in Ethylenediaminetetraacetic acid (EDTA) containing vacutainers, the blood samples are first centrifuged and washed three times with PBS to isolate blood cells from plasma. When in contact with adherent endothelial cells, EDTA will induce cell detachment by inhibiting Ca^2+ ions that are necessary for cell adhesion through integrins. […]

P-selectin [2] = molecular target: T1, P-selectin (Homo sapiens, UniProt P16109); experiment: Detachment experiments: drug flowed over leukocytes already adherent to immobilized P-selectin; assay type: cell-based
T1 sequence (P16109 42-830): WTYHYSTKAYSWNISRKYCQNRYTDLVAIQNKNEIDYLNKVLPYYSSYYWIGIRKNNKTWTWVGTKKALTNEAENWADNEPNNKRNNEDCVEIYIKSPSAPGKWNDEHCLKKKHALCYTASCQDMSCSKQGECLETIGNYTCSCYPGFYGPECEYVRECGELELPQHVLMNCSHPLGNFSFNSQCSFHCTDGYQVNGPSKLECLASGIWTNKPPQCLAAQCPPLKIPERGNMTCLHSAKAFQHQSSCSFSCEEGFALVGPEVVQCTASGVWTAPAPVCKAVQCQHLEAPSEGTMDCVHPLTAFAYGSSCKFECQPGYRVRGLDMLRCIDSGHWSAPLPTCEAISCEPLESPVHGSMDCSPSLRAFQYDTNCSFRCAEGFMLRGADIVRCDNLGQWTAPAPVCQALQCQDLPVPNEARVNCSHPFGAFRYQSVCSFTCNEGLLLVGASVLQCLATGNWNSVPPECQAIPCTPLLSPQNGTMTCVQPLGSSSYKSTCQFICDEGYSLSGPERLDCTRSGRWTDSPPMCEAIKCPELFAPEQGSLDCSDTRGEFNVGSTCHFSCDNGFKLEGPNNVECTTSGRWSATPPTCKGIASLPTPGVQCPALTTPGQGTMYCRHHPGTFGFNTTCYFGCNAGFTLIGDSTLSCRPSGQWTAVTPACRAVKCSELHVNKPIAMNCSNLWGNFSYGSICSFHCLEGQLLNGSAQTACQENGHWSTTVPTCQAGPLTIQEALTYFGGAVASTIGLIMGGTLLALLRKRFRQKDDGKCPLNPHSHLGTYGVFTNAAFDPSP
Experimental: (§1) Microfluidic devices were fabricated using a lamination technique. Each microfluidic device contained 3 identical microchannels with a height of 50 μm (FIG. 6A), which were designed to recapitulate volume and flow of post-capillary venules. The microchannels were functionalized with recombinant human P-selectin (25 μg/mL) and blocked with 2% bovine serum albumin (BSA) to pre-vent non-specific adhesion. After tubing assembly, whole blood samples were mixed with Hanks' buffer modified with calcium and magnesium (1:1 v/v), and 15 μL of the diluted whole blood was injected into the microchannels using New Era NE-300 syringe pump system (Farming-dale, N.Y.) at an approximate shear rate of 1 dyne/cm^2. Non-adherent cells were rinsed out by flowing Hanks' buffer. Phase-contrast images of the microchannels with adherent leukocytes were recorded at 10× with an inverted microscope (Olympus IX83) and a camera (EXi Blue EXI-BLU-RF-M-14-C), and adherent leukocytes were manually quantified with Adobe Photoshop software (San Jose, Calif.) in a 32 mm^2 area.
Crizanlizumab (ADAKVEO®, SEG101) stock solution (10 mg/mL) was donated by Novartis (Basel, Switzerland). For the inhibition experiments, P-selectin immobilized-microchannels were pre-treated with Hanks buffer as vehicle control, or Crizanlizumab with graded concentrations of 1, 10, 100 μg/mL, or 1 mg/mL at 37° C. for 30 min. There-after, the adhesion assay was performed. Human IgG2 (Sigma Aldrich, St. Louis, Mo.), at 100 μg/mL, was included as the isotype control for Crizanlizumab. For the detachment experiments, modified microchannels with individual inlets for separately injecting blood and drug-containing buffer were designed to allow transition from washing buffer to Crizanlizumab during rinsing. […] Cell behaviors were also continuously recorded. […]
Leukocyte adhesion data were reported as mean±standard error of the mean (SEM). […] Statistical significance was determined based on a p-value<0.05 (p<0.05).

P-selectin [3] = molecular target: T1, P-selectin; design: host or cells: patients with SCD (endogenous protein in vivo); conditions: infused monthly, patients with SCD; cited from earlier work
P-selectin [4] = molecular target: T1, P-selectin; experiment: Microfluidic whole blood assay of leukocyte adhesion to immobilized P-selectin, microchannels pre-treated with drug (inhibition experiments); assay type: cell-based
Experimental: as §1
Crizanlizumab (ADAKVEO®, SEG101) stock solution (10 mg/mL) was donated by Novartis (Basel, Switzerland). For the inhibition experiments, P-selectin immobilized-microchannels were pre-treated with Hanks buffer as vehicle control, or Crizanlizumab with graded concentrations of 1, 10, 100 μg/mL, or 1 mg/mL at 37° C. for 30 min. There-after, the adhesion assay was performed. Human IgG2 (Sigma Aldrich, St. Louis, Mo.), at 100 μg/mL, was included as the isotype control for Crizanlizumab. For the detachment experiments, modified microchannels with individual inlets for separately injecting blood and drug-containing buffer were designed to allow transition from washing buffer to Crizanlizumab during rinsing. Two synchronous pumps connected to these inlets were programmed such that Crizanlizumab at 10 μg/mL was injected into microchannels after Hanks buffer without a disruption in shear rate. The programmed flow rates of the two synchronous pumps over the course of the experiment are shown in FIG. 7A, which insured a constant shear rate in the microchannels. Cell behaviors were also continuously recorded. Phase contrast images of the adherent leukocytes were collected during Hanks's buffer rinse and Crizanlizumab flow for comparison.
Leukocyte adhesion data were reported as mean±standard error of the mean (SEM). Clinical variables of the study population were re-ported as mean±standard deviation (SD). Statistical analyses were per-formed with Minitab (Minitab Inc., State College, Pa.). A test for normality was initially performed on relevant variables. A paired t-test was per-formed to compare paired groups before and after Crizanlizumab treatment. Statistical significance was determined based on a p-value<0.05 (p<0.05).

[5] = pre-treatment 1 μg/mL, HbSS on-transfusion samples, N=8
[6] = pre-treatment 10 μg/mL, HbSS on-transfusion samples, N=8
[7] = pre-treatment 1 mg/mL, HbSS on-transfusion samples, N=8

Sequence of Recombinant human ICAM-1 (P05362 28-532): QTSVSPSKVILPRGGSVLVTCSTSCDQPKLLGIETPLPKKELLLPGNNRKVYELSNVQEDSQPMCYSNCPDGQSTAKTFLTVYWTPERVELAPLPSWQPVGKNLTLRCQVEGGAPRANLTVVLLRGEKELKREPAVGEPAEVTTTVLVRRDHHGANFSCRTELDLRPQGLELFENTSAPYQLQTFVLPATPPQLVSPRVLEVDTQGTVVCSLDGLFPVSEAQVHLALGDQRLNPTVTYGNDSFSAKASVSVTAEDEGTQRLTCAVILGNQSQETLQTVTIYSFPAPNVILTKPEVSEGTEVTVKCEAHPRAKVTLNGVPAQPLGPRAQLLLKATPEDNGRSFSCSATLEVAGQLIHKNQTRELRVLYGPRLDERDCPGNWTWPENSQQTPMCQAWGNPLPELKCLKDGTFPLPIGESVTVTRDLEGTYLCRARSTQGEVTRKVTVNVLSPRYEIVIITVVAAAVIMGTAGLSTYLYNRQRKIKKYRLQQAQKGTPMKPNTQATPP

With “recombinant human β2 protein: recombinant human β2 protein solution (Novus Biologicals) to block β2-associated adhesion pathways” the “Effect on HbSS RBC adhesion to immobilized ICAM-1” value (Recombinant human ICAM-1; microchannels treated with protein 1 hour 37° C., 5 experiments) was “No significant reduction”.

For low molecular weight heparin [LMWH], the “Effect on RBC adhesion to ICAM-1” value (Recombinant human ICAM-1; preincubation of microfluidic channels (not blood)) was “had no effect”, the “Inhibition of RBC adhesion to ICAM-1” value (Recombinant human ICAM-1; pretreatment of blood samples at 0.1 mg/mL) was 0.80% and the “Effect on RBC adhesion to ICAM-1” value (Recombinant human ICAM-1; whole blood samples treated (1:1 v/v) at 0.1, 1, and 5 mg/mL) was “significantly blocked RBC adhesion to ICAM-1”.

For fibrinogen, the “Effect on RBC adhesion to ICAM-1” value (Recombinant human ICAM-1; microchannels incubated with 1 mg/mL) was “did not inhibit RBC adhesion”, the Adhesion blocked (Recombinant human ICAM-1; microchannels incubated with 5 mg/mL) was “about 50%” and the “Effect on RBC adhesion to ICAM-1” value (Recombinant human ICAM-1; microchannels treated with 1, 5, 10, 20 mg/mL, n=5) was “significantly decreased RBC adhesion in a concentration-dependent manner”.

With `Cc1ccc(NC(=O)c2ccc(CN3CCN(C)CC3)cc2)cc1Nc1nccc(-c2cccnc2)n1` [imatinib] the “Sickle RBC adhesion to heme-activated endothelial cells (mean adhesion±SEM)” value [1] was 171±30.

B1: Crizanlizumab: humanized monoclonal antibody against P-selectin (antibody, chains of the INN, looked up, V domains shown)
VH: QVQLVQSGAEVKKPGASVKVSCKVSGYTFTSYDINWVRQAPGKGLEWMGWIYPGDGSIKYNEKFKGRVTMTVDKSTDTAYMELSSLRSEDTAVYYCARRGEYGNYEGAMDYWGQGTLVTVSS
VL: DIQMTQSPSSLSASVGDRVTITCKASQSVDYDGHSYMNWYQQKPGKAPKLLIYAASNLESGVPSRFSGSGSGTDFTLTISSLQPEDFATYYCQQSDENPLTFGGGTKVEIK
For B1, the “Effect of post-treatment on adherent leukocytes” value (P-selectin [2]; post-treatment 10 μg/mL after leukocytes adhered) was “detachment of rolling leukocytes whereas firmly attached cells remained adherent”, the “Leukocyte adhesion after introducing drug, range” value (P-selectin [2]; post-treatment 10 μg/mL, N=6) was 58-2388 and the “Leukocyte adhesion after introducing drug into the microchannels (mean±SEM)” value (P-selectin [2]; post-treatment 10 μg/mL, N=6 (4 on-transfusion)) was 719±354. The “Annual rate of VOC” value (P-selectin [3]) was “reduced the annual rate of VOC”, the “Leukocyte adhesion (adherent leukocytes, mean±SEM)” value (P-selectin [4]; isotype control comparison, 100 μg/mL, N=3) was 596±221 and the “Leukocyte adhesion (adherent leukocytes, mean±SEM)” value (P-selectin [4]; [5]) was 1535±258. For the same molecule, the “Leukocyte adhesion, range” value (P-selectin [4]; [5]) was 257-2732, the “Leukocyte adhesion (adherent leukocytes, mean±SEM)” value (P-selectin [4]; [6]) was 1057±325 and the “Leukocyte adhesion, range” value (P-selectin [4]; [6]) was 195-2948. The “Leukocyte adhesion (adherent leukocytes, mean±SEM)” value (P-selectin [4]; pre-treatment 100 μg/mL, 37° C. 30 min, HbSS on-transfusion samples, N=8, 32 mm^2 area, 1 dyne/cm^2) was 703±161, the “Leukocyte adhesion, range” value (P-selectin [4]; pre-treatment 100 μg/mL, HbSS on-transfusion samples, N=8) was 131-1474 and the “Leukocyte adhesion (adherent leukocytes, mean±SEM)” value (P-selectin [4]; [7]) was 587±168. For the same molecule, the “Leukocyte adhesion, range” value (P-selectin [4]; [7]) was 81-1403, the “Leukocyte adhesion (adherent leukocytes, mean±SEM)” value (P-selectin [4]; pre-treatment 1 mg/mL, non-transfusion individuals (on-hydroxyurea or supportive care), N=8) was 179±79 and the “Leukocyte adhesion, range” value (P-selectin [4]; pre-treatment 1 mg/mL, non-transfusion individuals, N=8) was 39-691.
